Results from patent publication US20230203161A1 (TENEOBIO, published 2023).
Residue numbers refer to the chain shown, from its start.

B1: anti-PSMA heavy-chain antibody (HCAb) clone ID 325920 (antibody, V domains shown)
VH: QLQLQESGPGLVKPSETLSLTCTVSGGSISSSSYYWGWIRQPPGKGLEWIGSIDYSGYTYYNPSLQSRVTISVDTSKNQFSLKLSSVTAADTAVYNCARHKAATADFDYRGQGTLVTVSS
notes: Heavy chain-only antibody (UniAb)
B2: anti-PSMA heavy-chain antibody (HCAb) clone ID 346181 (antibody, V domains shown)
VH: B1 VH with S33N, Y35F, P42S, Q66K
notes: as for B1
B3: anti-PSMA heavy-chain antibody (HCAb) clone ID 326109 (antibody, V domains shown)
VH: QLQLQESGPGLVKPSETLSLTCTVSGGSISSNSYYWGWIRQSPGKGLEWLGSIYDSGSTHYNPSLKSRVIISGDTSKNQFSLKLSSVTAADTAVYYCARHKAATADFDYRGQGTLVTVSS
notes: as for B1
B4: anti-PSMA heavy-chain antibody (HCAb) clone ID 346165 (antibody, V domains shown)
VH: B1 VH with I53V
notes: as for B1
B5: anti-PSMA heavy-chain antibody (HCAb) clone ID 345480 (antibody, V domains shown)
VH: QVQLVESGGGVVQPGRSLRLSCAASGFSFSSYGMHWVRQAPGKGLEWVAVIWYDGSNRYYADSVKGRFTISRDNSKNTLYLQMNSLRAEDTAVYYCAREPRIGYYYESSGYYSLDYRGQGTLVTVSS
notes: as for B1
B6: anti-PSMA heavy-chain antibody (HCAb) clone ID 345461 (antibody, V domains shown)
VH: B5 VH with S30T, W47G
notes: as for B1
B7: anti-PSMA heavy-chain antibody (HCAb) clone ID 345421 (antibody, V domains shown)
VH: B5 VH with G8V, W47G
notes: as for B1
B8: anti-PSMA heavy-chain antibody (HCAb) clone ID 325742 (antibody, V domains shown)
VH: B5 VH with R58K, N74Y, Y112D
notes: as for B1
B9: anti-PSMA heavy-chain antibody (HCAb) clone ID 326029 (antibody, V domains shown)
VH: B5 VH with S31R, W52S, R58K, I102V, S108T
notes: as for B1
B10: anti-PSMA heavy-chain antibody (HCAb) clone ID 345438 (antibody, V domains shown)
VH: B5 VH with L45P, R58K
notes: as for B1
B11: anti-PSMA heavy-chain antibody (HCAb) clone ID 345444 (antibody, V domains shown)
VH: B5 VH with S28T, W47G
notes: as for B1
B12: anti-PSMA heavy-chain antibody (HCAb) clone ID 325836 (antibody, V domains shown)
VH: B5 VH with S30R, R58K, N74Y, E107D, Y112D
notes: as for B1
B13: anti-PSMA heavy-chain antibody (HCAb) clone ID 345485 (antibody, V domains shown)
VH: B5 VH with S30R, R58K, L79M
notes: as for B1
B14: anti-PSMA heavy-chain antibody (HCAb) clone ID 326087 (antibody, V domains shown)
VH: B5 VH with S28I, S30R, L45P, R58K, E107D, Y112D
notes: as for B1
B15: anti-PSMA heavy-chain antibody (HCAb) clone ID 345436 (antibody, V domains shown)
VH: B5 VH with S31R, W47G, R58K
notes: as for B1
B16: anti-PSMA heavy-chain antibody (HCAb) clone ID 345505 (antibody, V domains shown)
VH: B5 VH with S28T, S30I, W47G
notes: as for B1
B17: anti-PSMA heavy-chain antibody (HCAb) clone ID 345493 (antibody, V domains shown)
VH: B5 VH with S31R
notes: as for B1
B18: anti-PSMA heavy-chain antibody (HCAb) clone ID 345497 (antibody, V domains shown)
VH: B5 VH with S31R, W47G
notes: as for B1
B19: anti-PSMA heavy-chain antibody (HCAb) clone ID 345482 (antibody, V domains shown)
VH: B5 VH with W47G, N74S
notes: as for B1
B20: anti-PSMA heavy-chain antibody (HCAb) clone ID 345443 (antibody, V domains shown)
VH: B5 VH with W47G, Y80F
notes: as for B1
B21: anti-PSMA heavy-chain antibody (HCAb) clone ID 326027 (antibody, V domains shown)
VH: B5 VH with S30R, R58K, E107D, Y112D
notes: as for B1
B22: anti-PSMA heavy-chain antibody (HCAb) clone ID 345510 (antibody, V domains shown)
VH: B5 VH with R58K, L79M
notes: as for B1
B23: anti-PSMA heavy-chain antibody (HCAb) clone ID 325867 (antibody, V domains shown)
VH: B5 VH with S30R, R58K, N74Y, Y112D
notes: as for B1
B24: anti-PSMA heavy-chain antibody (HCAb) clone ID 326084 (antibody, V domains shown)
VH: B5 VH with W47G, E107D
notes: as for B1
B25: anti-PSMA heavy-chain antibody (HCAb) clone ID 345509 (antibody, V domains shown)
VH: B5 VH with V11L, R16G, W47G, R58K, L79M
notes: as for B1
B26: anti-PSMA heavy-chain antibody (HCAb) clone ID 345490 (antibody, V domains shown)
VH: B5 VH with V11L, Q13K, R16G, W47G
notes: as for B1
B27: anti-PSMA heavy-chain antibody (HCAb) clone ID 345463 (antibody, V domains shown)
VH: B5 VH with S28I, S30R, L45P, R58K
notes: as for B1
B28: anti-PSMA heavy-chain antibody (HCAb) clone ID 326116 (antibody, V domains shown)
VH: B5 VH with S31R, W47G, W52S, R58K, N74Y, E107D, Y112D
notes: as for B1
B29: anti-PSMA heavy-chain antibody (HCAb) clone ID 345447 (antibody, V domains shown)
VH: B5 VH with W47G, W52S
notes: as for B1
B30: anti-PSMA heavy-chain antibody (HCAb) clone ID 345508 (antibody, V domains shown)
VH: B5 VH with L45P
notes: as for B1
B31: anti-PSMA heavy-chain antibody (HCAb) clone ID 326028 (antibody, V domains shown)
VH: B5 VH with S30R, W52S, R58K, N74Y, E107D, Y112D
notes: as for B1
B32: monoparatopic PSMA×CD3 bispecific antibody 346181×CD3 (bispecific antibody)
chain 1: B1 VH with S33N, Y35F, P42S, Q66K
chain 2: EVQLVESGGGLVQPGRSLRLSCAASGFTFDDYAMHWVRQAPGKGLEWVSGISWNSGSIGYADSVKGRFTISRDNAKNSLYLQMNSLRAEDTALYYCAKDSRGYGDYRLGGAYWGQGTLVTVSS
chain 3: not shown
B33: biparatopic anti-PSMA×CD3 antibody 350123×CD3 (bispecific antibody)
chain 1: QLQLQESGPGLVKPSETLSLTCTVSGGSISSSNYFWGWIRQSPGKGLEWIGSIDYSGYTYYNPSLKSRVTISVDTSKNQFSLKLSSVTAADTAVYNCARHKAATADFDYRGQGTLVTVSSGGGGSGGGGSQVQLVESGGGVVQPGRSLRLSCAASGFSFSRYGMHWVRQAPGKGLEGVAVIWYDGSNRYYADSVKGRFTISRDNSKNTLYLQMNSLRAEDTAVYYCAREPRIGYYYESSGYYSLDYRGQGTLVTVSS
chain 2: B32 chain 2
chain 3: not shown

Each binder was assayed against T1, human Prostate Specific Membrane Antigen (PSMA) (human, UniProt Q04609 1-750) (assay: flow cytometry on LNCaP cells).
T1 construct: whole, on cells; also called Glutamate Carboxypeptidase II; FOLH1
T1 sequence (Q04609 whole entry): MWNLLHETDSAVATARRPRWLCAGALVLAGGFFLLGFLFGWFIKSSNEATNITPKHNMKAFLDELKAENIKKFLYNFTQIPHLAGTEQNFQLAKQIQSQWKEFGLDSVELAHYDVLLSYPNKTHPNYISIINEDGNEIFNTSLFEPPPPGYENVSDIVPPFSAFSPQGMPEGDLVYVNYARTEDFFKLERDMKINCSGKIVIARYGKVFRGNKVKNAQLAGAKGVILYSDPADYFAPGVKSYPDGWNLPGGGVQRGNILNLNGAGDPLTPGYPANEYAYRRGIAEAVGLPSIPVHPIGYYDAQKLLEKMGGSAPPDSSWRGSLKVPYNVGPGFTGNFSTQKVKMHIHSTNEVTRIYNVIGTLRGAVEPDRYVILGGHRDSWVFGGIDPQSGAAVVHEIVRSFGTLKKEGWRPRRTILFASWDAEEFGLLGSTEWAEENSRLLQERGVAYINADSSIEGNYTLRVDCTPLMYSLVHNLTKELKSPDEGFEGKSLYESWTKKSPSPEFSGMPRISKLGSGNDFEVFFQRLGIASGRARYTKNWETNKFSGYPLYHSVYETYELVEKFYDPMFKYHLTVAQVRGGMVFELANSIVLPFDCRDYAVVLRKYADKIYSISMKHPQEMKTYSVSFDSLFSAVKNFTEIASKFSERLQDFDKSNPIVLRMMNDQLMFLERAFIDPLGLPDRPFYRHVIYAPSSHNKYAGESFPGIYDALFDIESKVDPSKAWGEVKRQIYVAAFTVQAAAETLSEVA
Procedure: Briefly, 50,000 target cells were stained with a dilution series of purified UniAbs™ for 30 minutes at 4° C. Following incubation, the cells were washed twice with flow cytometry buffer (1×PBS, 1% BSA, 0.1% NaN₃) and stained with goat F(ab′)₂ anti-human IgG conjugated to R-phycoerythrin (PE) (Southern Biotech, cat. #2042-09) to detect cell-bound antibodies. After a 20-minute incubation at 4° C., the cells were washed twice with flow cytometry buffer and the mean fluorescence intensity (MFI) was measured by flow cytometry. The MFI of cells stained with secondary antibody alone were used for determination of background signal and binding of each antibody was converted to fold over background. […] In some experiments EC50 values were calculated using GraphPad Prism 7.
Column 1 indicates the clone ID of the HCAb. Column 2 indicates binding to LNCaP cells measured as fold over the background MFI signal.
B1 was tested, and the “fold over background MFI” value was 282 fold over background. For B2, the “fold over background MFI” value was 264 fold over background. B3 was tested, and the “fold over background MFI” value was 25 fold over background. In the case of B4, the “fold over background MFI” value is reported as 243 fold over background. B5 was tested, and the “fold over background MFI” value was 47 fold over background. In the case of B6, the “fold over background MFI” value is reported as 102 fold over background. B7 was tested, and the “fold over background MFI” value was 22 fold over background. In the case of B8, the “fold over background MFI” value is reported as 200 fold over background. B9 was tested, and the “fold over background MFI” value was 109 fold over background. For B10, the “fold over background MFI” value was 13 fold over background. With B11 the “fold over background MFI” value was 23 fold over background. With B12 the “fold over background MFI” value was 163 fold over background. In the case of B13, the “fold over background MFI” value is reported as 71 fold over background. B14 was tested, and the “fold over background MFI” value was 129 fold over background. B15 was tested, and the “fold over background MFI” value was 87 fold over background. B16 was tested, and the “fold over background MFI” value was 59 fold over background. B17 was tested, and the “fold over background MFI” value was 101 fold over background. For B18, the “fold over background MFI” value was 112 fold over background. In the case of B19, the “fold over background MFI” value is reported as 80 fold over background. In the case of B20, the “fold over background MFI” value is reported as 84 fold over background. In the case of B21, the “fold over background MFI” value is reported as 138 fold over background. B22 was tested, and the “fold over background MFI” value was 13 fold over background. In the case of B23, the “fold over background MFI” value is reported as 210 fold over background. B24 was tested, and the “fold over background MFI” value was 125 fold over background. For B25, the “fold over background MFI” value was 37 fold over background. For B26, the “fold over background MFI” value was 80 fold over background. With B27 the “fold over background MFI” value was 68 fold over background. In the case of B28, the “fold over background MFI” value is reported as 38 fold over background. B29 was tested, and the “fold over background MFI” value was 14 fold over background. B30 was tested, and the “fold over background MFI” value was 55 fold over background. B31 was tested, and the “fold over background MFI” value was 117 fold over background.

The binders below were run against T1, human Prostate Specific Membrane … (assay: cell binding, flow cytometry, LNCAP cells).
For B32, the EC50 was 17 nM. B33 gave an EC50 of 2 nM.

The binders below were run against T1, human Prostate Specific Membrane … (assay: cell-based or functional assay).
With B32 the “IFNγ EC50, 22Rv1 cells” value was 174 nM, the “IFNγ EC50, LNCAP cells” value was 63 nM and the “IFNγ EC50, MDA-PCa-2b cells” value was 116 nM. The “IFNγ EC50, PC3-PSMA cells” value was 10.1 nM, the “IL-2 EC50, LNCAP cells” value was 575 nM and the “IL-2 EC50, MDA-PCa-2b cells” value was 38.5 nM. For the same binder, the “IL-2 EC50, PC3-PSMA cells” value was 4.1 nM, the “Kill EC50, 22Rv1 cells, resting T-cells” value was 52.8 nM and the “Kill EC50, LNCAP cells, resting T-cells” value was 14.6 nM. The “Kill EC50, MDA-PCa-2b cells, resting T-cells” value was 23.6 nM and the “Kill EC50, PC3-PSMA cells, resting T-cells” value was 3.7 nM. For B33, the “IFNγ EC50, 22Rv1 cells” value was 380 nM, the “IFNγ EC50, LNCAP cells” value was 3.29 nM and the “IFNγ EC50, MDA-PCa-2b cells” value was 0.9 nM. The “IFNγ EC50, PC3-PSMA cells” value was 1.01 nM, the “IL-2 EC50, LNCAP cells” value was 3.73 nM and the “IL-2 EC50, MDA-PCa-2b cells” value was 1.11 nM. For the same binder, the “IL-2 EC50, PC3-PSMA cells” value was 1.1 nM, the “Kill EC50, 22Rv1 cells, resting T-cells” value was 0.42 nM and the “Kill EC50, LNCAP cells, resting T-cells” value was 0.84 nM. For the same binder, the “Kill EC50, MDA-PCa-2b cells, resting T-cells” value was 0.41 nM and the “Kill EC50, PC3-PSMA cells, resting T-cells” value was 0.4 nM.

The binders below were run against T1, human Prostate Specific Membrane … (assay: cell binding, flow cytometry, PC3-PSMA cells).
B32 was tested, and the EC50 was 30 nM. In the case of B33, the EC50 is reported as 6 nM.

Each binder was assayed against T1, human Prostate Specific Membrane … (assay: cell binding, flow cytometry, MDA-PCa-2b cells).
Work on B32 yielded an EC50 of 28 nM. B33 gave an EC50 of 2 nM.

What follows are binders tested against T1, human Prostate Specific Membrane … (assay: cell binding, flow cytometry, 22Rv1 cells).
B32 gave an EC50 of 58 nM. B33 was tested, and the EC50 was 3 nM.
